# Results: PMC11996885, “Identification of potent biparatopic antibodies targeting FGFR2 fusion–driven cholangiocarcinoma” (The Journal of Clinical Investigation, 2025)
# B1: Anti-FGFR2 parental antibody D (antibody, V domains shown)
# VH: EVQLVESGGGLVQPGGSLRLSCAASGFPFTSTGISWVRQAPGKGLEWVGRTHLGDGSTNYADSVKGRFTISADTSKNTAYLQMNSLRAEDTAVYYCARTYGIYDTYDMYTEYVMDYWGQGTLVTVSS
# VL: DIQMTQSPSSLSASVGDRVTITCRASQDVDTSLAWYKQKPGKAPKLLIYSASFLYSGVPSRFSGSGSGTDFTLTISSLQPEDFATYYCQQSTGHPQTFGQGTKVEIK
# notes: VH of antibody D; VL of antibody D; Full human IgG1; also produced with F405L or K409R in the Fc for Fab-arm exchange; The label 'GE' in some supplementary panels probably means D; also called Ab-D; copies: 2 + 2
# B2: Anti-FGFR2 parental antibody C (antibody, V domains shown)
# VH: QVQLVESGGGLVKPGGSLRLSCAASGFTFSSYALSWVRQAPGKGLEWVGRIRSKIDGGTTDYAAPVKGRFTISRDDSKNTLYLQMNSLKTEDTAVYYCARDRSPSDSSAFAIWGQGTLVTVSS
# VL: DIELTQPPSVSVSPGQTASITCSGDNLGSQYVDWYQQKPGQAPVLVIYDDNDRPSGIPERFSGSNSGNTATLTISGTQAEDEADYYCQSWDSLSVVFGGGTKLTVL
# notes: VH of antibody C; VL of antibody C; Full human IgG1; The label 'N10' in some supplementary panels probably means C; also called Ab-C; copies: 2 + 2
# B3: Anti-FGFR2 parental antibody B (antibody, V domains shown)
# VH: QIQLVQSGPELKKPGETVKISCKASGYTFTDFGMNWMKQAPGKGFKWMGWINTSTGESTYADDFKGRFAFSLETSASTAYLQINNLKNEDMATYFCARNSYYGGSYGYWGQGTTLTVSS
# VL: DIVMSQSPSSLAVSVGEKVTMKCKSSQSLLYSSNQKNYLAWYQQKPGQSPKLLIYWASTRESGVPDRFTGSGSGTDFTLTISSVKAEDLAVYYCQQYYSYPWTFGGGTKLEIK
# notes: VH of antibody B; VL of antibody B; Full human IgG1; also produced with F405L or K409R in the Fc for Fab-arm exchange; The label 'Gal' in some supplementary panels probably means B; also called Ab-B; copies: 2 + 2
# B4: anti-FGFR2 parental antibody D (antibody, V domains shown)
# VH: B1 VH
# VL: B1 VL
# notes: heavy chain of antibody D; light chain of antibody D; IgG1; also called Ab-D; copies: 2 + 2
# B5: anti-FGFR2 parental antibody C (antibody, V domains shown)
# VH: B2 VH
# VL: B2 VL
# notes: heavy chain of antibody C; light chain of antibody C; IgG1; also called Ab-C; copies: 2 + 2
# B6: anti-FGFR2 parental antibody B (antibody, V domains shown)
# VH: B3 VH
# VL: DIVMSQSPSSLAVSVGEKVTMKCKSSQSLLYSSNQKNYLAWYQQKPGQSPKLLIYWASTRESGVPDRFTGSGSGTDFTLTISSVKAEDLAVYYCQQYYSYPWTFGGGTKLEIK
# notes: heavy chain of antibody B; light chain of antibody B; IgG1; also called Ab-B; copies: 2 + 2
# B7: FGFR2 parental antibody D (antibody, V domains shown)
# VH: B1 VH
# VL: B1 VL
# notes: heavy chain of antibody D, IgG1; light chain of antibody D; IgG1; One of the six parental antibodies is the parental antibody of bemarituzumab; also called Ab-D; copies: 2 + 2
# B8: FGFR2 parental antibody F (antibody, V domains shown)
# VH: QVQLVQSGAEVKKPGESLKISCKGSGYSFTNYYIHWVRQMPGKGLEWMGAIYPDNSDTTYSPSFQGQVTISADKSISTAYLQWSSLKASDTAMYYCARGADIWGQGTLVTVSS
# VL: DIQMTQSPSSLSASVGDRVTITCRASQDIDPYLSNWYQQKPGKAPKLLIYDASNLQSGVPSRFSGSGSGTDFTLTISSLQPEDFATYYCQQTTSHPYTFGQGTKVEIK
# notes: heavy chain of antibody F, IgG1; light chain of antibody F; IgG1; One of the six parental antibodies is the parental antibody of bemarituzumab; also called Ab-F; copies: 2 + 2
# B9: FGFR2 parental antibody C (antibody, V domains shown)
# VH: B2 VH
# VL: B2 VL
# notes: heavy chain of antibody C, IgG1; light chain of antibody C; IgG1; One of the six parental antibodies is the parental antibody of bemarituzumab; also called Ab-C; copies: 2 + 2
# B10: FGFR2 parental antibody E (antibody, V domains shown)
# VH: QVQLVQSGAEVKKPGSSVKVSCKASGYIFTTYNVHWVRQAPGQGLEWIGSIYPDNGDTSYNQNFKGRATITADKSTSTAYMELSSLRSEDTAVYYCARGDFAYWGQGTLVTVSS
# VL: DIQMTQSPSSLSASVGDRVTITCKASQGVSNDYAWYQQKPGKAPKLLIYSASYRYTGVPSRFSGSGSGTDFTFTISSLQPEDIATYYCQQHSTTPYTFGQGTKLEIK
# notes: heavy chain of antibody E, IgG1; light chain of antibody E; IgG1; One of the six parental antibodies is the parental antibody of bemarituzumab; Also used as the FGFR2 immunoblot reagent (Genscript); also called Ab-E; copies: 2 + 2
# B11: FGFR2 parental antibody B (antibody, V domains shown)
# VH: B3 VH
# VL: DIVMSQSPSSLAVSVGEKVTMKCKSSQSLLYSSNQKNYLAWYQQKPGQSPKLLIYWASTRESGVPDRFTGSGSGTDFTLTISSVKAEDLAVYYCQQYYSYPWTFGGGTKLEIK
# notes: heavy chain of antibody B, IgG1; light chain of antibody B; IgG1; One of the six parental antibodies is the parental antibody of bemarituzumab; also called Ab-B; copies: 2 + 2
# B12: FGFR2 parental antibody A (antibody, V domains shown)
# VH: EVQLLESGGGLVQPGGSLRLSCAASGFTFSSYAMSWVRQAPGKGLEWVSAISGSGTSTYYADSVKGRFTISRDNSKNTLYLQMNSLRAEDTAVYYCARVRYNWNHGDWFDPWGQGTLVTVSS
# VL: QSVLTQPPSASGTPGQRVTISCSGSSSNIGNNYVSWYQQLPGTAPKLLIYENYNRPAGVPDRFSGSKSGTSASLAISGLRSEDEADYYCSSWDDSLNYWVFGGGTKLTVL
# notes: heavy chain of antibody A, IgG1; light chain of antibody A; IgG1; One of the six parental antibodies is the parental antibody of bemarituzumab; also called Ab-A; copies: 2 + 2
# Molecular target: T1, hFGFR2 ECD 22-378 His-tag (human, UniProt P21802-3, biotin (Abcam Biotinylation Kit) in the epitope binning only)
# T1 construct: human FGFR2 extracellular domain, residues 22-378, SinoBiological 16485-H08H; also called hFGFR2 ECD AA22-AA378 His-tag; source: bought: SinoBiological
# T1 sequence (P21802 other isoform, or with tags, fused parts or gaps): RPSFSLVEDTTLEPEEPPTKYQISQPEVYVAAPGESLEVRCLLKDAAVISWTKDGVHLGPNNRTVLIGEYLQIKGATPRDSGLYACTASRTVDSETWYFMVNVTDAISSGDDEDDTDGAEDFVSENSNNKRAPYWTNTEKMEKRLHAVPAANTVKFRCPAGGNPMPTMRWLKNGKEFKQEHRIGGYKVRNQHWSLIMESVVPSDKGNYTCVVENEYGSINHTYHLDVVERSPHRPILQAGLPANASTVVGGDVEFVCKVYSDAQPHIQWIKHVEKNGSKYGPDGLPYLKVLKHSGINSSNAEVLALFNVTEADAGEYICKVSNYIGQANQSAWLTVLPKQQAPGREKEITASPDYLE
# Test: BLI; Octet RED96e, 25°C, 1,000 rpm, 1x kinetic buffer; antibodies captured on anti-human Fc (AHC) biosensors at 0.5 ug/mL; hFGFR2 ECD 22-378 His-tag as analyte, 7 2-fold dilutions from 100 nM; association 300 s, dissociation 600 s; 1:1 model, global fit; apparent Kd for the biparatopic antibodies
# Settings: both partners purified
Binder,Kd [nM],koff [s⁻¹],kon [M⁻¹ s⁻¹]
B1,2.79,0.000741,282000
B2,7.05,0.00292,417000
B3,5.5,0.000316,53100

# Molecular target: T2, hFGFR2 ECD 22-378 His-tag (Homo sapiens, UniProt P21802-3)
# T2 construct: FGFR2, human, extracellular domain residues 22-378 (SinoBiological 16485-H08H); Analyte of the BLI kinetics; also called hFGFR2 ECD AA22-AA378 His-tag; source: bought: SinoBiological
# Test: BLI; Octet RED96e, 25 C, 1,000 rpm, 1x kinetic buffer; antibody captured on anti-human Fc (AHC) biosensor at 0.5 ug/mL; hFGFR2 ECD 22-378 His-tag as analyte, 7 two-fold dilutions from 100 nM; 1:1 model, global fit; apparent
# Settings: both partners purified
row,Binder,Kd [nM]
1,B4,2.79
2,B5,7.05
3,B6,5.5

# Molecular target: T3, full-length FGFR2-BICC1 on NIH3T3 cells (Homo sapiens, UniProt P21802-3, chimera)
# T3 construct: FGFR2 part of the fusion, from its N-terminus with the extracellular domain to the breakpoint; the printed Gln361 fits the IIIb isoform (FGFR2b); BICC1 part of the fusion; also called FL; source: NIH3T3, transfected, on cells
# T3 sequence (P21802 whole entry, looked up, change not shown, the tested form may be a part, canonical isoform): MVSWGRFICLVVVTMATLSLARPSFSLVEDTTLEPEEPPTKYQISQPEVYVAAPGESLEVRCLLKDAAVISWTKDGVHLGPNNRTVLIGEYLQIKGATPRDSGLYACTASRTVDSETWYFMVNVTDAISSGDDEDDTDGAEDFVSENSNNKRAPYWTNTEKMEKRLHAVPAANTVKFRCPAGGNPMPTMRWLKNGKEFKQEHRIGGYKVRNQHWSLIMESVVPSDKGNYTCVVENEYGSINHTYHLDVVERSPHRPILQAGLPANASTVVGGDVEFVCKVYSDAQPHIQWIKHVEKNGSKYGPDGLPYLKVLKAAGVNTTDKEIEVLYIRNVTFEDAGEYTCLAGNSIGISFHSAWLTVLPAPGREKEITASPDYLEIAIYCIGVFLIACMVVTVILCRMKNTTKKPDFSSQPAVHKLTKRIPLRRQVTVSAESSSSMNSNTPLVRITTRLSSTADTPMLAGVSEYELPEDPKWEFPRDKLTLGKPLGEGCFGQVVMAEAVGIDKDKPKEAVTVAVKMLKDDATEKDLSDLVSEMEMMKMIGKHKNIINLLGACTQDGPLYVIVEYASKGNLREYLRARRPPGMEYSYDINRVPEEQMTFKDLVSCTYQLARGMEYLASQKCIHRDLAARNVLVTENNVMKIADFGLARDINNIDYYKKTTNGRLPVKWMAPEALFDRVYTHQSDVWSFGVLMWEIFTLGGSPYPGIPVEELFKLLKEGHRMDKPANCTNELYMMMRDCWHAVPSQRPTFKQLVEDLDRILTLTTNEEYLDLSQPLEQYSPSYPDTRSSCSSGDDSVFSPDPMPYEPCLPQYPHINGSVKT
# Test: flow cytometry on cells; NIH3T3 cells expressing full-length FGFR2-BICC1 or its D1, D2, D3 or D2+D3 deletion variants, parental antibody A-F at 10 μg/mL in 1x PBS (Mg2+ free), 1.5 hours at room temperature; anti-human IgG secondary antibody
# Settings: one partner purified
row,Binder,binding result
1,B7,binds
2,B8,binds
3,B9,binds
4,B10,binds
5,B11,binds
6,B12,binds

# Molecular target: T4, hFGFR2 ECD 22-378 His-tag (Homo sapiens, UniProt P21802-3, biotin in the epitope binning only (Abcam Biotinylation Kit))
# T4 construct: human FGFR2 extracellular domain, residues 22-378; The antigen of the MSD-SET assay and the FGFR2 ECD of the SEC-MALS experiment are not described; also called hFGFR2 ECD AA22-AA378 His-tag; antigen; source: bought: SinoBiological
# T4 sequence (P21802 other isoform, or with tags, fused parts or gaps): as the sequence (P21802 other isoform, or with tags, fused parts or gaps) above
# Test: BLI; Octet RED96e, 25°C, 1x kinetic buffer; antibodies captured on Anti-Human Fc capture biosensor at 0.5 μg/mL; hFGFR2 ECD 22-378 His-tag as analyte, 2-fold dilutions from 100 nM; 1:1 binding model; apparent affinity
# Settings: both partners purified
row,Binder,binding result
1,B8,binds
2,B10,binds
3,B12,binds

# Molecular target: T5, FGFR2 on SNU16 cells (FGFR2 amplification) (Homo sapiens (SNU-16, endogenous), UniProt P21802-3)
# T5 construct: FGFR2 endogenous on SNU16 cells; source: endogenous, SNU16 cells
# T5 sequence (P21802 22-821): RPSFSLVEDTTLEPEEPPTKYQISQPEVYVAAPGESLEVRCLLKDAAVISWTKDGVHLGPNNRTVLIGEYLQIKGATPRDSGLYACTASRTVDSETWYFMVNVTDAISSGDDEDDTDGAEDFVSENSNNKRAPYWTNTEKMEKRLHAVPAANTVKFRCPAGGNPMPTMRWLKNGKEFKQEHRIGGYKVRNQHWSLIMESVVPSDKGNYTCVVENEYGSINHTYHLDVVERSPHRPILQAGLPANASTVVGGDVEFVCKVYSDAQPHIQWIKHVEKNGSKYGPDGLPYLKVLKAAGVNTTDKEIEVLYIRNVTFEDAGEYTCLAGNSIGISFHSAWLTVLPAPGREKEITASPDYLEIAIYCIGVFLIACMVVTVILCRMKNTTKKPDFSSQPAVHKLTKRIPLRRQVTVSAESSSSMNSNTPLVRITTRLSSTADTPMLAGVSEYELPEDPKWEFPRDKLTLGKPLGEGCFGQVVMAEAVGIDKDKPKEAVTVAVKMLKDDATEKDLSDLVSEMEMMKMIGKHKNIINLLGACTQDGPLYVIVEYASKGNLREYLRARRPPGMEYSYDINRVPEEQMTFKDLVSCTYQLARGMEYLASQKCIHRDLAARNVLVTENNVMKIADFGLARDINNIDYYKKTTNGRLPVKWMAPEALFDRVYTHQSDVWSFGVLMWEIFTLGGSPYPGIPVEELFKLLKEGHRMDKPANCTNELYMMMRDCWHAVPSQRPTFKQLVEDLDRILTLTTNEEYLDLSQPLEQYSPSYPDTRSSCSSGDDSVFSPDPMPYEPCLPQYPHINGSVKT
# Test: flow cytometry on cells; SNU-16 cells incubated with serial dilutions of parental antibody A-F in 1x PBS (Mg2+ free), 1.5 hours at room temperature; anti-human IgG secondary antibody; fit with a ligand-binding quadratic equation; apparent Kd
# Settings: one partner purified
row,Binder,binding result
1,B8,binds
2,B10,binds
3,B12,binds
